From article PMC8882007, “Syndapin-2 mediated transcytosis of amyloid-β across the blood–brain barrier” (Brain Communications, 2022)

Assays:
Assay in all cases: proximity ligation; Duolink PLA between two endogenous proteins in polarized bEnd3 monolayers, fixed in 4% PFA and permeabilized with 0.1% Triton X-100; two primary antibodies overnight at 4°C; PLA signal normalized by the number of nuclei; also in shRNA control (scramble) and syndapin-2 knockdown cells, and after FAM-Aβ (1–40) or Aβ monomers, oligomers or fibrils for 15 min
[1] = target: Rab11 (mouse (endogenous in bEnd3)) (UniProt P62492)
[2] = target: Rab5 (mouse (endogenous in bEnd3)) (UniProt Q9CQD1)
[3] = target: Rab7 (mouse (endogenous in bEnd3)) (UniProt P51150)

Measured: PLA dots per cell (dots per cell)

Sequence of syndapin-2 (Q9WVE8 whole entry): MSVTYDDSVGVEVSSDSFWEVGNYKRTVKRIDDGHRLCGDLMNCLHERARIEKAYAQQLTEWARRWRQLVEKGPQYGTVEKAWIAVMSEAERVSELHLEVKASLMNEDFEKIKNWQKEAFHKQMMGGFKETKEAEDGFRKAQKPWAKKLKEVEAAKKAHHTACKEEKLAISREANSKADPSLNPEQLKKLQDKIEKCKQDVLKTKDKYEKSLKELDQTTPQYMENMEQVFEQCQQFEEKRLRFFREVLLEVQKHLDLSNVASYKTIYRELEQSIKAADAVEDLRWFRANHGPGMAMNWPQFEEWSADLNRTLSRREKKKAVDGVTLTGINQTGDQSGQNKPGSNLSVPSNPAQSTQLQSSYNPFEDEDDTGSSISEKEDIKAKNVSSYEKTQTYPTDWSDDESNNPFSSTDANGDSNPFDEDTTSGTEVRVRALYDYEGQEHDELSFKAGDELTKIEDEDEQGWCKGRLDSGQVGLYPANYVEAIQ
Sequence of Rab7 (mouse (endogenous in bEnd3)) (P51150 whole entry): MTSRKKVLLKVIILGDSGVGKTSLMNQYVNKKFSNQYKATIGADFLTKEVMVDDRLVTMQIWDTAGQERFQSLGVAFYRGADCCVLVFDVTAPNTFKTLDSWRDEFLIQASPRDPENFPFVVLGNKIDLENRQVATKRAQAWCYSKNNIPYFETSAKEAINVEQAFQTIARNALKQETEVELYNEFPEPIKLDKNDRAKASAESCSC
Sequence of Rab5 (mouse (endogenous in bEnd3)) (Q9CQD1 whole entry): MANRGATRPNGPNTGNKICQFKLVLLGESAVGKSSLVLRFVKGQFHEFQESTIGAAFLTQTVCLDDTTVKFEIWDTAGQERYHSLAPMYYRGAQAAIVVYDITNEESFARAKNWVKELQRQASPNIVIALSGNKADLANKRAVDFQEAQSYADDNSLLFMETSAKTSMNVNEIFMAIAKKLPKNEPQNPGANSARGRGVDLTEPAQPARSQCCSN
Sequence of Rab11 (mouse (endogenous in bEnd3)) (P62492 whole entry): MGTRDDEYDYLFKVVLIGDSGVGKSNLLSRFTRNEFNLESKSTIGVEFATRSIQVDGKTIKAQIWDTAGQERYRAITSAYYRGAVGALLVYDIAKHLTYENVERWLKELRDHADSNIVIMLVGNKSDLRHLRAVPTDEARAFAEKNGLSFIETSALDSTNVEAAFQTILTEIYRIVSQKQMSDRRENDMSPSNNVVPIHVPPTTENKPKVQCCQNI

syndapin-2 (from UniProt Q9WVE8 1-486) (natural protein)
< 20: [1] | [2] | [3]
